# Data reported in US20140087995A1 (published 2014).
# Numbered stars: 1 amine (or outer) side, 2 acyl side, 3 side chain; on linkers, the order of the positions; unused ones are H or OH. Bridge positions count the residues as written; N and C are the ends. * marks the point of attachment. C20 diacid = O=C(O)CCCCCCCCCCCCCCCCCCC(=O)*; γGlu = O=C(O)[C@H](CCC(=O)[*:2])N[*:1]
# T1: human amylin receptor (human, UniProt P30988 25-474; O60896 24-148, limits assumed)
# T1 construct: whole, on cells; Calcitonin receptor plus RAMP-3 gives the amylin 3(a) receptor; membranes of Amylin 3(a)/CRE-luc cells were used; also called hAmylin-R; hAmylinR
# T1 sequence (looked up) 1: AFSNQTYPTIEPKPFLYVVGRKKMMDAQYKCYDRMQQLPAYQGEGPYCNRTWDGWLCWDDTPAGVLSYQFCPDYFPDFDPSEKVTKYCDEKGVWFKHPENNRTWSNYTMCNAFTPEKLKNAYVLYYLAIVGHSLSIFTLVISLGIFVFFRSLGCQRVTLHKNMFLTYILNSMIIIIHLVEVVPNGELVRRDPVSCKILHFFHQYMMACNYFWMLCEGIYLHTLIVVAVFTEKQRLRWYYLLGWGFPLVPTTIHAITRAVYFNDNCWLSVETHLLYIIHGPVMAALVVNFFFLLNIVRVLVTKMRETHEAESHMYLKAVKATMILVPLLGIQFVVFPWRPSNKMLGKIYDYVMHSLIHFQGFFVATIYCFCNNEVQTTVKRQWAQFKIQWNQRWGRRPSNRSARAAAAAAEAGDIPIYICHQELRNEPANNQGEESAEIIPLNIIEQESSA
# T1 sequence (looked up) 2: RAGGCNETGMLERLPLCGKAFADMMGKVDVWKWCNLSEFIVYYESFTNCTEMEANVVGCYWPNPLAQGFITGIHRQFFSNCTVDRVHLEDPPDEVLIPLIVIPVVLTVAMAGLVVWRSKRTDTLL
# Target: T1, human amylin receptor
# Test: SPA competition binding, displacement of 125I-rat amylin from membranes with human amylin 3(a) receptor (Assay V)
# Protocol: The binding assay was performed using scintillation proximity assay (SPA) beads (RPNQ0001) from PerkinElmer and cell membranes from the Amylin 3(a)/CRE-luc cells (as described in Assay (II)) were used. Membranes were prepared in the following way; the cells were rinsed with PBS and incubated with Versene for approximately 5 min before harvesting. The cells were flushed with PBS and the cell-suspension was centrifuged for 5 min at 1000 rpm. Cells were homogenized (ultrathurrax) in a buffer containing 20 mM Na-HEPES and 10 mM EDTA (pH 7.4) and centrifuged at 20.000 rpm for 15 min. The resulting pellet was resuspended, homogenized and centrifuged (20.000 rpm, 15 min) in a buffer containing 20 mM Na-HEPES and 0.1 mM EDTA (pH 7.4, buffer 2). The resulting pellet was resuspended in buffer 2 and protein concentration was measured (BCA protein Assay, Pierce). The homogenate was kept cold during the whole procedure. The membranes were kept at −80° C. until use. The assay was performed in a 384 well Optiplate (PerkinElmer) in a total volume of 40 ul. Membranes were mixed with SPA beads. Final concentration of membranes 35 ng/μL final and SPA beads was 0.05 mg/well. Test-compounds were dissolved in DMSO and further diluted in assay buffer (50 mM Hepes, pH 7.4, 1 mM CaCl2, 5 mM MgCl₂, 0.1% OA and 0.02% Tween20). […] The final mixture was incubated with shaking at 400 rpm for 120 min at 25° C. prior to centrifugation (1500 rpm, 10 min). Samples were analyzed on TopCounter™ (Packard). The IC₅₀ was calculated using (one site binding competition analysis) GraphPad Prism5 as a measure of receptor affinity.
row,Binder,IC50
1,"{C20 diacid-γGlu}-KCNTATCATQRLAEFLRHSSPNFGAPLSSTNVGSNTY-NH2 (disulfide 2-7; SMILES CC(C)C[C@H](NC(=O)[C@H](CCCNC(=N)N)NC(=O)[C@H](CCC(N)=O)NC(=O)[C@@H](NC(=O)[C@H](C)NC(=O)[C@@H]1CSSC[C@H](NC(=O)[C@H](CCCCN)NC(=O)CC[C@H](NC(=O)CCCCCCCCCCCCCCCCCCC(=O)O)C(=O)O)C(=O)N[C@@H](CC(N)=O)C(=O)N[C@@H]([C@@H](C)O)C(=O)N[C@@H](C)C(=O)N[C@@H]([C@@H](C)O)C(=O)N1)[C@@H](C)O)C(=O)N[C@@H](C)C(=O)N[C@@H](CCC(=O)O)C(=O)N[C@@H](Cc1ccccc1)C(=O)N[C@@H](CC(C)C)C(=O)N[C@@H](CCCNC(=N)N)C(=O)N[C@@H](Cc1c[nH]cn1)C(=O)N[C@@H](CO)C(=O)N[C@@H](CO)C(=O)N1CCC[C@H]1C(=O)N[C@@H](CC(N)=O)C(=O)N[C@@H](Cc1ccccc1)C(=O)NCC(=O)N[C@@H](C)C(=O)N1CCC[C@H]1C(=O)N[C@@H](CC(C)C)C(=O)N[C@@H](CO)C(=O)N[C@@H](CO)C(=O)N[C@H](C(=O)N[C@@H](CC(N)=O)C(=O)N[C@H](C(=O)NCC(=O)N[C@@H](CO)C(=O)N[C@@H](CC(N)=O)C(=O)N[C@H](C(=O)N[C@@H](Cc1ccc(O)cc1)C(N)=O)[C@@H](C)O)C(C)C)[C@@H](C)O, also called 14E, 17R, 21P, 26P) [N^α1-[(4S)-4-carboxy-4-(19-carboxynonadecanoylamino)butanoyl]-[Glu14,Arg17,Pro21,Pro26]-h-amylin]",0.674 nM
2,"{C20 diacid-γGlu}-KCNTATCATQRLAEFLRHSSPNFGAIPSSTPVGSNTY-NH2 (disulfide 2-7; SMILES CC[C@H](C)[C@H](NC(=O)[C@H](C)NC(=O)CNC(=O)[C@H](Cc1ccccc1)NC(=O)[C@H](CC(N)=O)NC(=O)[C@@H]1CCCN1C(=O)[C@H](CO)NC(=O)[C@H](CO)NC(=O)[C@H](Cc1c[nH]cn1)NC(=O)[C@H](CCCNC(=N)N)NC(=O)[C@H](CC(C)C)NC(=O)[C@H](Cc1ccccc1)NC(=O)[C@H](CCC(=O)O)NC(=O)[C@H](C)NC(=O)[C@H](CC(C)C)NC(=O)[C@H](CCCNC(=N)N)NC(=O)[C@H](CCC(N)=O)NC(=O)[C@@H](NC(=O)[C@H](C)NC(=O)[C@@H]1CSSC[C@H](NC(=O)[C@H](CCCCN)NC(=O)CC[C@H](NC(=O)CCCCCCCCCCCCCCCCCCC(=O)O)C(=O)O)C(=O)N[C@@H](CC(N)=O)C(=O)N[C@@H]([C@@H](C)O)C(=O)N[C@@H](C)C(=O)N[C@@H]([C@@H](C)O)C(=O)N1)[C@@H](C)O)C(=O)N1CCC[C@H]1C(=O)N[C@@H](CO)C(=O)N[C@@H](CO)C(=O)N[C@H](C(=O)N1CCC[C@H]1C(=O)N[C@H](C(=O)NCC(=O)N[C@@H](CO)C(=O)N[C@@H](CC(N)=O)C(=O)N[C@H](C(=O)N[C@@H](Cc1ccc(O)cc1)C(N)=O)[C@@H](C)O)C(C)C)[C@@H](C)O, also called 14E, 17R, 21P, 27P, 31P)",0.204 nM
3,"{C20 diacid-γGlu}-KCNTATCATQRLAEFLRHSSPNFGAIPSSTNVGSHTY-NH2 (disulfide 2-7; SMILES CC[C@H](C)[C@H](NC(=O)[C@H](C)NC(=O)CNC(=O)[C@H](Cc1ccccc1)NC(=O)[C@H](CC(N)=O)NC(=O)[C@@H]1CCCN1C(=O)[C@H](CO)NC(=O)[C@H](CO)NC(=O)[C@H](Cc1c[nH]cn1)NC(=O)[C@H](CCCNC(=N)N)NC(=O)[C@H](CC(C)C)NC(=O)[C@H](Cc1ccccc1)NC(=O)[C@H](CCC(=O)O)NC(=O)[C@H](C)NC(=O)[C@H](CC(C)C)NC(=O)[C@H](CCCNC(=N)N)NC(=O)[C@H](CCC(N)=O)NC(=O)[C@@H](NC(=O)[C@H](C)NC(=O)[C@@H]1CSSC[C@H](NC(=O)[C@H](CCCCN)NC(=O)CC[C@H](NC(=O)CCCCCCCCCCCCCCCCCCC(=O)O)C(=O)O)C(=O)N[C@@H](CC(N)=O)C(=O)N[C@@H]([C@@H](C)O)C(=O)N[C@@H](C)C(=O)N[C@@H]([C@@H](C)O)C(=O)N1)[C@@H](C)O)C(=O)N1CCC[C@H]1C(=O)N[C@@H](CO)C(=O)N[C@@H](CO)C(=O)N[C@H](C(=O)N[C@@H](CC(N)=O)C(=O)N[C@H](C(=O)NCC(=O)N[C@@H](CO)C(=O)N[C@@H](Cc1c[nH]cn1)C(=O)N[C@H](C(=O)N[C@@H](Cc1ccc(O)cc1)C(N)=O)[C@@H](C)O)C(C)C)[C@@H](C)O, also called 14E, 17R, 21P, 27P, 35H)",0.554 nM
4,"{C20 diacid-γGlu}-KCNTATCATQRLAEFLRHSSPNFGAIPSSTNVGSDTP-NH2 (disulfide 2-7; SMILES CC[C@H](C)[C@H](NC(=O)[C@H](C)NC(=O)CNC(=O)[C@H](Cc1ccccc1)NC(=O)[C@H](CC(N)=O)NC(=O)[C@@H]1CCCN1C(=O)[C@H](CO)NC(=O)[C@H](CO)NC(=O)[C@H](Cc1c[nH]cn1)NC(=O)[C@H](CCCNC(=N)N)NC(=O)[C@H](CC(C)C)NC(=O)[C@H](Cc1ccccc1)NC(=O)[C@H](CCC(=O)O)NC(=O)[C@H](C)NC(=O)[C@H](CC(C)C)NC(=O)[C@H](CCCNC(=N)N)NC(=O)[C@H](CCC(N)=O)NC(=O)[C@@H](NC(=O)[C@H](C)NC(=O)[C@@H]1CSSC[C@H](NC(=O)[C@H](CCCCN)NC(=O)CC[C@H](NC(=O)CCCCCCCCCCCCCCCCCCC(=O)O)C(=O)O)C(=O)N[C@@H](CC(N)=O)C(=O)N[C@@H]([C@@H](C)O)C(=O)N[C@@H](C)C(=O)N[C@@H]([C@@H](C)O)C(=O)N1)[C@@H](C)O)C(=O)N1CCC[C@H]1C(=O)N[C@@H](CO)C(=O)N[C@@H](CO)C(=O)N[C@H](C(=O)N[C@@H](CC(N)=O)C(=O)N[C@H](C(=O)NCC(=O)N[C@@H](CO)C(=O)N[C@@H](CC(=O)O)C(=O)N[C@H](C(=O)N1CCC[C@H]1C(N)=O)[C@@H](C)O)C(C)C)[C@@H](C)O, also called 14E, 17R, 21P, 27P, 35D, 37P)",0.105 nM

# Next, values leading:
row,IC50,Binder
1,0.072 nM,"{C20 diacid-γGlu}-KCNTATCATQRLAEFLRHSSPNFGAIPSSTNVGSNTP-NH2 (disulfide 2-7; SMILES CC[C@H](C)[C@H](NC(=O)[C@H](C)NC(=O)CNC(=O)[C@H](Cc1ccccc1)NC(=O)[C@H](CC(N)=O)NC(=O)[C@@H]1CCCN1C(=O)[C@H](CO)NC(=O)[C@H](CO)NC(=O)[C@H](Cc1c[nH]cn1)NC(=O)[C@H](CCCNC(=N)N)NC(=O)[C@H](CC(C)C)NC(=O)[C@H](Cc1ccccc1)NC(=O)[C@H](CCC(=O)O)NC(=O)[C@H](C)NC(=O)[C@H](CC(C)C)NC(=O)[C@H](CCCNC(=N)N)NC(=O)[C@H](CCC(N)=O)NC(=O)[C@@H](NC(=O)[C@H](C)NC(=O)[C@@H]1CSSC[C@H](NC(=O)[C@H](CCCCN)NC(=O)CC[C@H](NC(=O)CCCCCCCCCCCCCCCCCCC(=O)O)C(=O)O)C(=O)N[C@@H](CC(N)=O)C(=O)N[C@@H]([C@@H](C)O)C(=O)N[C@@H](C)C(=O)N[C@@H]([C@@H](C)O)C(=O)N1)[C@@H](C)O)C(=O)N1CCC[C@H]1C(=O)N[C@@H](CO)C(=O)N[C@@H](CO)C(=O)N[C@H](C(=O)N[C@@H](CC(N)=O)C(=O)N[C@H](C(=O)NCC(=O)N[C@@H](CO)C(=O)N[C@@H](CC(N)=O)C(=O)N[C@H](C(=O)N1CCC[C@H]1C(N)=O)[C@@H](C)O)C(C)C)[C@@H](C)O, also called 14E, 17R, 21P, 27P, 37P)"
2,0.1 nM,"{C20 diacid-γGlu}-KCNTATCATQRLAEFLRHSSPNFGAIPSSTNVGPNTY-NH2 (disulfide 2-7; SMILES CC[C@H](C)[C@H](NC(=O)[C@H](C)NC(=O)CNC(=O)[C@H](Cc1ccccc1)NC(=O)[C@H](CC(N)=O)NC(=O)[C@@H]1CCCN1C(=O)[C@H](CO)NC(=O)[C@H](CO)NC(=O)[C@H](Cc1c[nH]cn1)NC(=O)[C@H](CCCNC(=N)N)NC(=O)[C@H](CC(C)C)NC(=O)[C@H](Cc1ccccc1)NC(=O)[C@H](CCC(=O)O)NC(=O)[C@H](C)NC(=O)[C@H](CC(C)C)NC(=O)[C@H](CCCNC(=N)N)NC(=O)[C@H](CCC(N)=O)NC(=O)[C@@H](NC(=O)[C@H](C)NC(=O)[C@@H]1CSSC[C@H](NC(=O)[C@H](CCCCN)NC(=O)CC[C@H](NC(=O)CCCCCCCCCCCCCCCCCCC(=O)O)C(=O)O)C(=O)N[C@@H](CC(N)=O)C(=O)N[C@@H]([C@@H](C)O)C(=O)N[C@@H](C)C(=O)N[C@@H]([C@@H](C)O)C(=O)N1)[C@@H](C)O)C(=O)N1CCC[C@H]1C(=O)N[C@@H](CO)C(=O)N[C@@H](CO)C(=O)N[C@H](C(=O)N[C@@H](CC(N)=O)C(=O)N[C@H](C(=O)NCC(=O)N1CCC[C@H]1C(=O)N[C@@H](CC(N)=O)C(=O)N[C@H](C(=O)N[C@@H](Cc1ccc(O)cc1)C(N)=O)[C@@H](C)O)C(C)C)[C@@H](C)O, also called 14E, 17R, 21P, 27P, 34P)"
